In this experiment the target is Smog::GFP (Drosophila). The experiment in a line: fluorescence correlation spectroscopy.

As for Smog::GFP (receptor), the estimated fraction of dimers (monomer/dimer model), WT embryos was 68%; the estimated fraction of dimers (monomer/dimer model), control embryos is 79%; the estimated fraction of dimers (monomer/dimer model), gprk2 RNAi embryos was 100%; the estimated fraction of trimers (monomer/trimer model), control embryos was 21%. Also, the estimated fraction of trimers (monomer/trimer model), gprk2 RNAi embryos was 76%.

Values taken from publication PMC12913813.
